# Experiment: soluble on expression in E. coli; label from the status in PepcDB or PDB records
row,Sequence,soluble on expression in E. coli
1,MDIFYKKIKANVTPEVLAQLHSKKIILESTNQQQTKGRYSVVIFDIYGTLTLDNDVLSVSTLKESYQITERPYHYLTTKINEDYHNIQDEQLKSLPFISGYVGTCSFDLVRHEFPKLQSIQLEDHKQHDVRLYMVEQVYVFDHYKDELYIIATNQFSNSTKSDLENRVIKSIEDLTKIQPFMPTQDFDFKTKEIQSNISEERFIEMIQYFKEKITEGDMFQVVPSRIYKYAHHASQHLNQLSFQLYQNLKRQNPSPYMYYLNIDQPYIVGSSPESFVSVKDQIVTTNPIAGTIQRGETTQIDNENMKQLLNDPKECSEHRMLVDLGRNDIHRVSKIGTSKITKLMVIEKYEHVMHIVSEVTGKINQNLSPMTVIANLLPTGTVSGAPKLRAIERIYEQYPHKRGVYSGGVGYINCNHNLDFALAIRTMMIDEQYINVEAGCGVVYDSIPEKELNETKLKAKSLLEVSP,not soluble
2,MKIALINENSQASKNHIIYDSLKEATDKKGYQLFNYGMRGEEGESQLTYVQNGLMAAILLNTKAVDFVVTGCGTGVGAMLALNSFPGVVCGLAVDPTDAYLYSQINGGNALSIPYAKGFGWGAELTLKLMFERLFAEEMGGGYPRERVIPEQRNARILNEVKQITHNDLMTILKIIDQDFLKDTISGKYFQEYFFENCQDDEVAAYLKEVLA,not soluble
3,MAHHHHHHMAIVGDSLNKRRNYTVCGLVSNPLFQKCAEVAQYVAEEYSDEFYVDIFREMPCEFYSRREQLLNSKKIEDGGMEVIVLVGADGHTGPTNGEGEAMSGDDFLNMMQKATCFRVLNIPPERPDSYENMAHLSWKNYLRERGNTYCWMEISIGEMVHGRVTFELYSRVVPHTCSNFWHLCKGDLSRDADEGEEQVPILSYKNSTFFRTLHGAWVMGGDISGGNGRGGYSIYGRYFPNESYAIPHDRVGVLGMCNDGGDTNASSFYITMKAMQWMNGRYVAFGRVVDGLEVVHAIHAVDVKHNQCPKKVITISDCGVIDLTE,not soluble
4,KKDFTWSSTVTFTANKEKIKSLIEGQDMMFNAKKGDMVFKVGEGVGSFYRYKVLGIWQYSEKETAALFGCEPGDIKLDLPSVKKDGNGYYYMNPEGERVDITAENPYGVRADYDRQVIGRNTPDWTLGFKNNFRYKDFDLSVFLYARWGQMMNYGSVIGKYSPNPDYNIPTYFTYYDKTIEADQDVLFYAIDKSKDRSAYEGYDSMYYVDGSFFKLKNVTLGYTLPGKLTKRFGISNLRVYATMTNLFTYSPNKYVKNYDPEMNGSINFPLSRDCIFGLNLTF,not soluble
5,MQDPYVKEAENLKKYFNAGHSDVADNGTLFLGILKNWKEESDRKIMQSQIVSFYFKLFKNFKDDQSIQKSVETIKEDMNVKFFNSNKKKRDDFEKLTNYSVTDLNVQRKAIDELIQVMAEFSTEEQQEGPYVKEAENLKKYFNAGHSDVADNGTLFLGILKNWKEESDRKIMQSQIVSFYFKLFKNFKDDQSIQKSVETIKEDMNVKFFNSNKKKRDDFEKLTNYSVTDLNVQRKAIHELIQVMAELSPAAKTGKRKRSQMLFRG,soluble
6,MCMTRQPAVAGQFYTDEPKRLRGDLQRMIPAETMKQRVKGIVAPHAGYVYSGHVAGAVYGAIEIPSTVVILGPNHHGFGAAAALYPEGEWLTPLGSVPIDVRLSQLVQKHVPLVEPEMSAHRFEHSLEVQVPFLQYRADVSIVPICLGFGDYERCRLLGEGIARAIREFGEDVLIVASSDMTHYESADAARAKDEQAIAEVLALNPEGLVQICRRKNITMCGVIPATVMLVTAKALGASKAELISYATSGDVTGDNRQVVAYAAMAVYLEHHHHHH,not soluble
7,EVKLVESGGGLVLPGGSLRLSCATSGFTFTDYYMTWVRQPPGKALEWLGFIGNKANDYTTEYSASVKGRFTISRDDSQSILYLQMSTLRAEDRATYYCATVYGNYPYFDVWGAGTTVAVSSAKTTPPSVYPLAPVCGGTTGSSVTLGCLVKGYFPEPVTLTWNSGSLSSGVHTFPAVLQSGLYTLSSSVTVTSSTWPSQSITCNVAHPASSTKVDKKIEPR,soluble
8,MNSENSFSSSEHITVLLHEAVNGLALKENGIYIDGTFGRGGHSRFILSQLSSNGRLIAVDRDPRAIAEAHKIQDLRFQIEHNSFSHIPEICDKLNLVGKIDGILLDLGVSSPQLDEAERGFSFMKDGPLDMRMDTTQGLSAEEWLKQVSIEDLTWVLKTFGEERFAKRIATAIVDFNKSAVKNGTEFLSRTSQLAELISQAVPFKDKHKHPATRSFQAIRIFINSELDELESLLNSALDMLAPEGRLSIISFHSLEDRMVKHFMKKQSKGEDIPKGLPLREDQIQRNQKLRIIGKAIQPSDAEIQANPRSRSAILRVAERI,not soluble
9,MIYIGFYPKFNISGFSIGINTGVRFDVSSKLHYETSSASENINNEVKPRTYIRGTFDYSVFFKDNMAINVGLYIGYDWGFAWSDTYANADVVKNESFGNLDLGIQVGYRFGPKF,not soluble
10,MGSDKIHHHHHHENDPPLSSCGIFQSRIAGDALLDSGIRISSVFASPALRCVQTAKLILEELKLEKKIKIRVEPGIFEWTKWEAGKTTPTLMSLEELKEANFNIDTDYRPAFPLSALMPAESYQEYMDRCTASMVQIVNTCPQDTGVILIVSHGSTLDSCTRPLLGLPPRECGDFAQLVRKIPSLGMCFCEENKEEGKWELVNPPVKTLTHGANAAFNWRNWISGN,not soluble
11,SLTDRLERKLAIAANQDKADLLIKNGQIVDVFQLETFEGDVVIADGEIVAISDPGTYEAHEEVDAKGAFIAPAFIDGHVHIESSMVAPEQFAKVVVPHGVTTVIADPHEIANVAGVQGVEYMLDASEGIPLDVKMMVPSCVPATPFEHSGARLTAEEVAELFRDPRIFGLGEVMDYPAVLTRDQEMMAKLKAAHSEGRIVDGHGAGLDSVALNAYTAAGIGNDHEAVTPEEAKARLQRGMYLLIREGTAAKDFDALMKAITPMNSRRALFVTDDKHLDELVEEGSIDHHVRKAIQIGVNPLQAIQMASLNAAECFKLAKKGAIAPGFTADLLFIEDLQSLAITHVFKNGTCVAKNGKLIVPIRETVQPPQRLLESVNMKLVTKEQLELSLQSDEEAHLIQIQPGSIVTKHIREKVAVKDGVFIPSVARDQLKLVVAERHHKRGTVGVGIVKGFGLTKGAIATTVAHDSHNIVAVGTNDEDLLAAIKELENIQGGMTIVKDGKVLVSLPLTIGGLMSDQSYDVVCEQIKSVDAAIGALGFVGDFNPFLTLSFLALPVIPEIKLTDQGLFDVTSFSFIDQQVYAEETN,soluble
12,MGSDKIHHHHHHMLYDVAIIGGGPSGAAAAEILARAGHSTILIERNLANVKPCGGAIPLGLIEEFDIPDELVEKKLTRMSVRSPKGETIFMHMPNGYVGMVRRERFDRYLREKAQKAGAEVVEALVKKIERSVDRFTLQLFNKEGEALPPVEASYVIGADGANSKTADELGFPPNDLKVIAMQQRFHYCDELKPYEELVEIWFDGEVSPDFYGWIFPKTDHIAIGTGTEEHRNDIKQLQHRFVEKIGIAEKPYLNEAAKIPMKPRRSFTQERAILVGDAAGLVTPANGEGIFFAMRSGKLGAEAMIERIRNNTPLSSYEKKFRKLYSPIFFGLQVLQSVYYKSDRLRESFVAICRDKDVQGITFDSYLYKKMVPAPWSVQMKIMAKNIYHLAKGS,not soluble
13,MGSDKIHHHHHHMFHPIEEALDALKKGEVIIVVDDEDRENEGDFVALAEHATPEVINFMATHGRGLICTPLSEEIADRLDLHPMVEHNTDSHHTAFTVSIDHRETKTGISAQERSFTVQALLDSKSVPSDFQRPGHIFPLIAKKGGVLKRAGHTEAAVDLAEACGSPGAGVICEIMNEDGTMARVPELIEIAKKHQLKMITIKDLIQYRYNLTTLVEREVDITLPTDFGTFKVYGYTNEVDGKEHVAFVMGDVPFGEEPVLVRVHSECLTGDVFGSHRCDCGPQLHAALNQIAAEGRGVLLYLRQEGRGIGLINKLKAYKLQEQGYDTVEANEALGFLPDLRNYGIGAQILRDLGVRNMKLLTNNPRKIAGLEGYGLSISERVPLQMEAKEHNKKYLQTKMNKLGHLLHF,not soluble
14,MLGIDLGSNTLRAVQMDEKLNKLKEYEFVIGAAKNLNQSGEISKEAIQRLKNTLSILAKEQDLSKARAVATAAFRKASNTNEIFAHLKKEFGIDFKLIDAKSEAKISVLGMQSGLRRLKIWGEFAYCDLGGASCELSFGKSFKSFDFGIISFYEKNYHSYYKSCISYKKLIKKYPKFIINIKDKKLKIHFLIANPYLKHLAFRAFDEVAMIKKELRSLGAKTVVLNSGVPTTLSALKQNISYEKYEATKVNGKKLCHKDFLNYAIKLFHMEEKKAIKEVGTMRKNYLSAGCLLFYALFDKHKLLVIDEGLREGVCLASMKNIKF,not soluble

# — the DeepSol protein solubility set
